From publication PMC7144908

B1: ssDNA(GAPDH) (ssDNA)
DNA: CGACAGTCAGCCGCATCTTCTTTTGCGTCGCCAGCCGAGCCCTATAGTGAGTCGTAT
B2: dsDNA(GAPDH) (dsDNA)
DNA 1: B1 DNA
DNA 2: ATACGACTCACTATAGGGCTCGGCTGGCGACGCAAAAGAAGATGCGGCTGACTGTCG
B3: ssDNA(Site2) (ssDNA)
DNA: GCTCAGAGGCCGAGGCGGCCTCGGCCTCTGCATAAATAAAAAAAATTAGTCAGCCAT
B4: dsDNA(Site2) (dsDNA)
DNA 1: B3 DNA
DNA 2: ATGGCTGACTAATTTTTTTTATTTATGCAGAGGCCGAGGCCGCCTCGGCCTCTGAGC

How the values were obtained:
[1] = biological target: T1, SV40 large T antigen (Tag) (Simian virus 40, UniProt P03070 1-708); assay: AUC
T1 sequence (P03070 whole entry): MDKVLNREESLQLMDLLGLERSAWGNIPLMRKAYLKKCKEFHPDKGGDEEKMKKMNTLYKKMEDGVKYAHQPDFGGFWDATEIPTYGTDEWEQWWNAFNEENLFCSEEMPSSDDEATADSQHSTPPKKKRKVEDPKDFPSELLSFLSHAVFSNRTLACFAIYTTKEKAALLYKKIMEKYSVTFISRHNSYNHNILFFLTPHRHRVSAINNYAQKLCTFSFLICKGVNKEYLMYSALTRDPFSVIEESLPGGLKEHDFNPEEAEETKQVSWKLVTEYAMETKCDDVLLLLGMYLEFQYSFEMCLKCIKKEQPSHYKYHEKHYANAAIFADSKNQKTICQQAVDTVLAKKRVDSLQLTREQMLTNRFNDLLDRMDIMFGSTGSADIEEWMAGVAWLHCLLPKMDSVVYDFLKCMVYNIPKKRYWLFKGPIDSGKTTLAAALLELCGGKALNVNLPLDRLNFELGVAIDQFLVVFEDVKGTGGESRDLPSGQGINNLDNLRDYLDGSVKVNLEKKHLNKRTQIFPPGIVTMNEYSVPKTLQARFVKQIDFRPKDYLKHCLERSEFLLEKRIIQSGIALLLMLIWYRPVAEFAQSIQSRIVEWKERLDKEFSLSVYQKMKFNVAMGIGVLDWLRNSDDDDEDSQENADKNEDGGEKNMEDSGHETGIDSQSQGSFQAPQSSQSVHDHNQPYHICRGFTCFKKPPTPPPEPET

[2] = biological target: T1, SV40 large T antigen (Tag); assay: EMSA
[3] = biological target: T1, SV40 large T antigen (Tag); assay: EMSA; remark: listed apart in the source
[4] = biological target: T1, SV40 large T antigen (Tag); assay: DSF
[5] = biological target: SV40 large T antigen (Tag);Replication protein A (RPA) (Simian virus 40;human, UniProt P03070;P27694;P15927;P35244 1-708;1-616;1-270;1-121, |); assay: EMSA
Chain of SV40 large T antigen (Tag);Replication protein A (RPA) (P03070 whole entry, chain 1 of 4): as the sequence (P03070 whole entry) above
Chain of SV40 large T antigen (Tag);Replication protein A (RPA) (P27694 whole entry, chain 2 of 4): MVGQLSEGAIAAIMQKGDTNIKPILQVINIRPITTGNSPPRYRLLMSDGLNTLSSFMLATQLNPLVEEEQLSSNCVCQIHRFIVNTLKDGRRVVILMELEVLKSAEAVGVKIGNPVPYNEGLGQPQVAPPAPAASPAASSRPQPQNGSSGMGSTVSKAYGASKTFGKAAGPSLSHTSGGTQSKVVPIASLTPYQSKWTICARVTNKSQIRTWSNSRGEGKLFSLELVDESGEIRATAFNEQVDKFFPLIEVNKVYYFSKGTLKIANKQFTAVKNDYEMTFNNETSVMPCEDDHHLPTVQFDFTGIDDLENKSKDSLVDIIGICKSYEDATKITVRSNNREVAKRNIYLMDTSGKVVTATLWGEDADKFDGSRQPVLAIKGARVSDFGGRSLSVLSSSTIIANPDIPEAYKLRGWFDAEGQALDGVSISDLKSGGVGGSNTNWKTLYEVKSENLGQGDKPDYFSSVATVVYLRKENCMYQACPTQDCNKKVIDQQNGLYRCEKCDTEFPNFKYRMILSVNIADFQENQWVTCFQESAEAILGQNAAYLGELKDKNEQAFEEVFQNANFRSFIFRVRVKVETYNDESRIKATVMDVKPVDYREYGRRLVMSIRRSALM
Chain of SV40 large T antigen (Tag);Replication protein A (RPA) (P15927 whole entry, chain 3 of 4): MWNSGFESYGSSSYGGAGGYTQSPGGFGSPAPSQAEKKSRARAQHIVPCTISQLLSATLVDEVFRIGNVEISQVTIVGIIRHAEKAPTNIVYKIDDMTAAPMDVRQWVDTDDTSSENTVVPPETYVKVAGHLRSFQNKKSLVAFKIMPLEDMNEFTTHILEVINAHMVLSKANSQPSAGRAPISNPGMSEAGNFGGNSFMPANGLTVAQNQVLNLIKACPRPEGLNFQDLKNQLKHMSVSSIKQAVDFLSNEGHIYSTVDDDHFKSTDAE
Chain of SV40 large T antigen (Tag);Replication protein A (RPA) (P35244 whole entry, chain 4 of 4): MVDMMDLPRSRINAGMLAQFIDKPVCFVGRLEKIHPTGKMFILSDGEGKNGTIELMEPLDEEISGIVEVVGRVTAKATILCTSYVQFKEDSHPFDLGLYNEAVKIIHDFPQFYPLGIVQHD

[6] = biological target: T1, SV40 large T antigen (Tag); assay: EMSA; remark: listed apart in the source
[7] = biological target: Replication protein A (RPA) (human, UniProt P27694;P15927;P35244 1-616;1-270;1-121); assay: EMSA
Chain of Replication protein A (RPA) (P27694 whole entry, chain 1 of 3): as the sequence (P27694 whole entry, chain 2 of 4) above
Chain of Replication protein A (RPA) (P15927 whole entry, chain 2 of 3): as the sequence (P15927 whole entry, chain 3 of 4) above
Chain of Replication protein A (RPA) (P35244 whole entry, chain 3 of 3): as the sequence (P35244 whole entry, chain 4 of 4) above

[8] = biological target: T1, SV40 large T antigen (Tag); assay: DSF; remark: listed apart in the source
[9] = biological target: T1, SV40 large T antigen (Tag); assay: EMSA; remark: listed apart in the source
[10] = biological target: T1, SV40 large T antigen (Tag); assay: DSF; remark: listed apart in the source
[11] = biological target: T1, SV40 large T antigen (Tag); assay: DSF; remark: listed apart in the source
[12] = biological target: T1, SV40 large T antigen (Tag); assay: EMSA; remark: listed apart in the source
[13] = biological target: T1, SV40 large T antigen (Tag); assay: EMSA; remark: listed apart in the source
[14] = biological target: T1, SV40 large T antigen (Tag); assay: EMSA; remark: listed apart in the source

Binder	Kd [4] [nM]	Kd [6] [nM]	Kd [8] [nM]	Kd [9] [nM]	other results
GGTCGACTCTAGAGGATCAGATCTGGTACCTCTAGACTCGAGGCATGC (ssDNA) [ssDNA (gap) 48-mer]					binding result [1]: binds
B1	10 ± 1	40 ± 10			Kd [2]: ~110 nM; Kd [3]: 80 ± 40 nM; binding result [5]: binds; Kd [7]: ~10 nM
B2			5800 ± 4000		
B3	50 ± 10	70 ± 8	40 ± 7	40 ± 5	Kd [10]: 100 ± 30 nM; Kd [11]: 200 ± 60 nM; Kd [12]: 70 ± 10 nM; Kd [13]: 80 ± 30 nM; Kd [14]: 40 ± 10 nM
B4		220 ± 130	120 ± 110	100 ± 50	
